The values below come from patent US10202593B2, “Evolved sortases and uses thereof” (President and Fellows of Harvard College, priority 2013, dated 2019).

In this assay the target is T1, fetuin A in human plasma (Homo sapiens, UniProt P02765).
T1 construct: site-specific modification of endogenous fetuin A in human plasma; tissue VWR 89347-902; host or cells: normal human plasma
T1 sequence (P02765 19-367): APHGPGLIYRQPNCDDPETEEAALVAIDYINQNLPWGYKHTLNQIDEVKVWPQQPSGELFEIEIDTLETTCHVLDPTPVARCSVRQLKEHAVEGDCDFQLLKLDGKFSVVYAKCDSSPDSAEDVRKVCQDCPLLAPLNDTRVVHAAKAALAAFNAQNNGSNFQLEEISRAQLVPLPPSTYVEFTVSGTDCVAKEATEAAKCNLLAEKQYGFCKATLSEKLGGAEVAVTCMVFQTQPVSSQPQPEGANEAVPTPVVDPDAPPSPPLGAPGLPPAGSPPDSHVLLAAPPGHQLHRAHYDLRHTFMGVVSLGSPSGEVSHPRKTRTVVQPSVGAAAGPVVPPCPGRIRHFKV
In words: Plasma labeling of fetuin A with GGGK(biotin). Format: biochemical. Conditions: for overall conjugation efficiency in human plasma (fetuin A, densitometry): 2 hours, room temperature. As to the method:
FIG. 21A-D show applications of evolved sortases. (A) N- and C-terminal labeling of fibroblast growth factors FGF1 and FGF2. Tandem SUMO-TEV cleavage site-FGF1/2-LPESG-His6 (SEQ ID NO: 27) constructs were treated with eSrtA(4S-9) in the presence of GGG-PEG, then with eSrtA(2A-9) and TEV protease in the presence of Alexa Fluor750-LAETGG (SEQ ID NO: 35) and purified to afford the final conjugates in up to 20% yield (Table 3). The crude reactions were analyzed by SDS-PAGE and scanned for fluorescence at 700 nm. (B) Surface functionalization using eSrtA(2A-9) and eSrtA(4S-9). 96-well plates coated with GGG-PEG (5 kDa) were incubated with enzyme and Alexa Flur 488-LAETG (SEQ ID NO: 5; green) or Alexa Fluor 647-LPESG (SEQ ID NO: 3; red) for 2 hours, then washed three times. The total fluorescence of the resulting surfaces was measured at 488 nm or 647 nm, then normalized to the fluorescent intensities obtained from the samples containing eSrtA(2A-9)+488-LAETG (SEQ ID NO: 5) or eSrt(4S-9)+647-LPESG (SEQ ID NO: 3). (C, D) Treatment of human plasma with evolved SrtA variants for 2 hours at room temperature in the presence of GGGK(biotin) (SEQ ID NO: 22) with or without 10 mM CaCl2. […] Biotin capture and mass spectrometry identified this protein as fetuin A, confirmed by subsequent Western blot (D).
Normal human plasma was purchased from VWR (part number 89347-902) and stored at −20° C. For all reactions, an aliquot was thawed at 37° C. for 15 minutes, then vortexed to resuspend any coagulated material. To this sample was added 2 μL of 0.1 M GGGK(biotin) (SEQ ID NO: 22) for analytical reactions. Higher concentrations of GGGK(biotin) (SEQ ID NO: 22) were avoided for analytical purposes, as they caused increased background in downstream Western blotting. 10 μL of 1 M CaCl2 was added in cases of calcium supplementation. Reactions were initiated by the addition of 10 μL of 100 μM eSrtA, eSrtA(2A-9), or eSrtA(4S-9) and incubated at room temperature for 2 hours. Reactions were quenched by 10:1 dilution into SDS-PAGE loading buffer, followed by a 10 minute incubation at 95° C. These samples were then run on 4-12% Bis-Tris PAGE gels, blotted to PVDF membrane using the iBlot2 dry blotting system, blocked with Pierce Superblock buffer for 1 hour followed by incubation with 1:500 dilutions of Abcam α-Fetuin A antibody (MM0273-6M23) in Superblock buffer with 0.1% Tween-20 for 1 hour. The blot was then washed 3 times with PBS+0.1% Tween-20, then incubated again in 1:15,000 LiCor goat antimouse 680+1:15,000 Licor Streptavidin-800 in Superblock buffer with 0.1% Tween and 0.01% SDS added for 45 minutes. The blot was then washed 3 times with PBS+0.1% Tween and visualized on an Odyssey IR imager.
As in analytical labeling of Fetuin A, 1 mL of normal human plasma was combined with 10 μL 1M CaCl2, 10 μL of 0.1M GGGK(Biotin) (SEQ ID NO: 22), and 10 μL of 100 μM eSrtA(4S-9), then incubated at room temperature for 2 hours. 100 μL of pre-equilibrated Ni-NTA resin slurry and 12.5 μL 0.4M H2N-LPESGG (SEQ ID NO: 38) peptide was added to the mixture to act as a competitive inhibitor for thioester formation. The mixture was incubated at room temperature with shaking for 15 minutes, then filtered through a 0.2 μm spin filter before dilution to 10 mL final volume in PBS+1 mM EDTA+100 μM H2N-LPESGG (SEQ ID NO: 38) (PBS-EL). The solution was concentrated using a 10 kDa molecular weight cutoff spin concentrator for 20 minutes at 3500×g and a final volume of <1 mL. […]

Setting [1] is: presence of supplemental calcium (10 mM CaCl2).

Substitutions are numbered along the chain they refer to. In names and notes the source's numbering stands.

B1: eSrtA (protein)
chain: QAKPQIPKDKSKVAGYIEIPDADIKEPVYPGPATREQLNRGVSFAEENESLDDQNISIAGHTFIDRPNYQFTNLKAAKKGSMVYFKVGNETRKYKMTSIRNVKPTAVEVLDEQKGKDKQLTLITCDDYNEETGVWETRKIFVATEVK
Regarding B1, the “fetuin A conjugation efficiency lower than that of eSrtA(4S-9)” value (10 mM added CaCl2) is recorded as 90 fold. The “overall conjugation efficiency in human plasma (fetuin A, densitometry)” value under setting [1] is listed as 0.6%. The “processing of fetuin A” value (without supplemental calcium) is given as “no processing”.

B2: eSrtA(4S-9): P94R, N98D, S102C, A104V, A118T, F122A, K134R, F144L, D160N, D165A, I182V, E189F, K190E, K196T (protein)
chain: B1 chain with N39D, S43C, A45V, A59T, F63A, K75R, F85L, I123V, E130F
For B2, the “overall conjugation efficiency in human plasma (fetuin A, densitometry)” value is, setting by setting: (absence of supplemental calcium) 1.8%; under setting [1], 57.6%.
